Results: article PMC9239988 (Nature Communications, 2022)

B1: tick-borne encephalitis virus (TBEV) soluble envelope protein E (sE) (domain or fragment)
chain: SRCTHLENRDFVTGTQGTTRVTLVLELGGCVTITAEGKPSMDVWLDAIYQENPAKTREYCLHAKLSDTKVAARCPTMGPATLAEEHQGGTVCKRDQSDRGWGNHCGLFGKGSIVACVKAACEAKKKATGHVYDANKIVYTVKVEPHTGDYVAANETHSGRKTASFTISSEKTILTMGEYGDVSLLCRVASGVDLAQTVILELDKTVEHLPTAWQVHRDWFNDLALPWKHEGAQNWNNAERLVEFGAPHAVKMDVYNLGDQTGVLLKALAGVPVAHIEGTKYHLKSGHVTCEVGLEKLKMKGLTYTMCDKTKFTWKRAPTDSGHDTVVMEVTFSGTKPCRIPVRAVAHGSPDVNVAMLITPNPTIENNGGGFIEMQLPPGDNIIYVGELSHQWFQKGSSIG

Columns and labels:
[1] = biological target: tick-borne encephalitis virus (TBEV) pr, the pr part of prM (aa 1-88) (tick-borne encephalitis virus strain Neudoerfl); experiment: SPR; […] ([…] to 7.8 nM), […], pH 5.5; 1:1 model; […]
SEC-MALS = biological target: the molecule itself; experiment: SEC-MALS

| Molecule | Kd [1] | stoichiometry N (SEC-MALS) |
| --- | --- | --- |
| tick-borne encephalitis virus (TBEV) soluble envelope protein E (sE) (from UniProt P14336 281-680) (domain or fragment) | 0.066 to 10 µM |  |
| B1 |  | 2 |
